Molecular target: T1, dCREB2-a (Drosophila melanogaster) (UniProt Q9VWW0)
T1 sequence: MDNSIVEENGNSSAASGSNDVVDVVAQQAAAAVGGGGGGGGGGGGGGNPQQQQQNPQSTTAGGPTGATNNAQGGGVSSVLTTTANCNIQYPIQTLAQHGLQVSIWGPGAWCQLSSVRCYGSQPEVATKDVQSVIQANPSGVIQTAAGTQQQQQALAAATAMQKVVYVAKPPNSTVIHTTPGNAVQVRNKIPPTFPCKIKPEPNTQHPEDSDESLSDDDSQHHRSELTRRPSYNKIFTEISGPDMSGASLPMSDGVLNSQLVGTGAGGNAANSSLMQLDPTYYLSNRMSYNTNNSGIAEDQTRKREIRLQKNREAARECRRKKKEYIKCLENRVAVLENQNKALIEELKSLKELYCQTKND
Test: cell_activity
Conditions: F9 cells, with PKA versus PKA alone

## D(-71) CAT reporter CRE fragment
  activity: 5.4 fold
